Measured values as given in patent US10280218B2, “Antibodies binding to BMP4, and uses thereof” (ACADEMISCH MEDISCH CENTRUM, priority 2014, dated 2019).

T1: BMP2 (Homo sapiens, UniProt P12643)
T1 sequence (P12643 283-396): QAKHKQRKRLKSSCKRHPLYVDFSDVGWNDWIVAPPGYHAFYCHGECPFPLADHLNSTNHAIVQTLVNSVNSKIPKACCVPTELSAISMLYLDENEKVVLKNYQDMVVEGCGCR

T2: BMP7 (Homo sapiens, UniProt P18075)
T2 sequence (P18075 293-431): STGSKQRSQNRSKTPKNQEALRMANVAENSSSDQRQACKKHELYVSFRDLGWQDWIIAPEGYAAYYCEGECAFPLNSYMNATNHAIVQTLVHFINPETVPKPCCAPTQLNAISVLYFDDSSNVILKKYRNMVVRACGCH

T3: BMP6 (Homo sapiens, UniProt P22004)
T3 sequence (P22004 375-513): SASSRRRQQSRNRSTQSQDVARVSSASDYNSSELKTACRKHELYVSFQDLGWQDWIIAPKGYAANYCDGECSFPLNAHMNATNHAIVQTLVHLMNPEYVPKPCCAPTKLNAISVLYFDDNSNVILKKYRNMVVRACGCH

T4: BMP5 (Homo sapiens, UniProt P22003)
T4 sequence (P22003 317-454): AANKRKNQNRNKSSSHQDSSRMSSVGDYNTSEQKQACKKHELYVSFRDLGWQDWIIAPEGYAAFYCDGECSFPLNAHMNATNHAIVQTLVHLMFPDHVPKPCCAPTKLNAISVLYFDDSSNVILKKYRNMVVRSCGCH

B1: hNoggin (protein)
chain: QHYLHIRPAPSDNLPLVDLIEHPDPIFDPKEKDLNETLLRSLLGGHYDPGFMATSPPEDRPGGGGGAAGGAEDLAELDQLLRQRPSGAMPSEIKGLEFSEGLAQGKKQRLSKKLRRKLQMWLWSQTFCPVLYAWNDLGSRFWPRYVKVGSCFSKRSCSVPEGMVCKPSKSVHLTVLRWRCQRRGGQRCGWIPIQYPIISECKCSC
B2: C8E7: E7 linked to C8, hetero-dimer VHH bihead (protein)
chain: EVQLVESGGGLVQAGGSLRLSCAASGRTFRINDMGWYRQAPGKSRDMVARITSGGNTNYADSVKGRFTISRDNAKNTVYLQMNSLKPEDTAVYYCNADGLRFDSTRYRPFDSWGQGTQVTVSSGGGGSGGGGSEVQLVESGGGLVQAGGSLRLSCAASGSIRGFVAMAWYRQAPGKQREWVATVTNGGTLYGDSVKGRFTGSRDNAKNTVYLQMNSLKPEDTAVYYCALRQIGASGYDYWGQGTQVTVSS

Columns and labels:
[1] = tested on: BMP12; assay: BMP activity luciferase reporter assay (BRE-luciferase, ID1 promoter) in C2C12 cells; type: cell-based, mouse; conditions: 50 ng/ml hBMP12, 16 h; 500 ng/ml
Procedure: C2C12 cells were plated in 96-well plates when they reached confluency, cells were treated in triplicate with 25 ng/ml of BMP9, 50 ng/ml of BMP10 or 50 ng/ml of BMP12 (all from R&D Systems), for 16 hours. VHHs or Noggin were added at a concentration of 5 ug/ml. C2C12 cells or HEK293 were plated on 12-well plates and starved for 5 hours, before stimulation with 2 ng/ml of TGF-β (R&D Systems) or 100 ng/ml Activin-A (R&D Systems), respectively. VHHs at the indicated concentrations were added at the same time. After 1 hour cells were lysed, and protein isolation and SDS-PAGE separation were performed as described previously. For protein detection the following antibodies were used: antiphospho-SMAD2 at 1:1000 (Cell Signaling).
C2C12 cells were cultured in 96-well plates at 5×10^3 cells/well. After overnight attachment cells were stimulated with 10 ng/ml hBMP4 (Cat No. 314-BP-020; R&D Systems), 50 ng/ml hBMP2 (Cat No. 355-BM-010; R&D Systems), 200 ng/ml hBMP5 (Cat No. 615-BMC-020; R&D Systems), 50 ng/ml hBMP6 (Cat No. 506-BP-020; R&D Systems), 200 ng/ml hBMP7 (Cat No. 354-BP-010; R&D Systems), 25 ng/ml hBMP9 (Cat No. 3209-BP-010; R&D Systems), 25 ng/ml hBMP10 (Cat No. 2926-BP-025; R&D Systems), 50 ng/ml hBMP12 (Cat No. 779-G7-010; R&D Systems) and with or without VHH antibodies: C4C4 and C8C8 at 500 ng/ml; natural antagonist: mNoggin (Cat No. 1967-NG-025; R&D Systems), hNoggin (Cat No. 6057-NG; R&D Systems) and mGremlin (cat#956-GR-050; R&D Systems) at 500 ng/ml; chemical antagonist: 0.5 μM LDN-193189 (Cat No. 11802; Cayman Chemical) and 0.2 μM DMH1 (Cat No. 57146; Selleckchem).

[2] = biological target: T1, BMP2; assay: Phosphorylation of SMAD1/5/8 in EPC2-hTERT cells (western blot); type: cell-based; conditions: 100 ng/ml BMP2, 4 hours; indicated concentrations
Procedure: To detect phosphorylation of SMAD1/5/8 in vitro, EPC2-hTERTs were cultured in 24-well plates and activated with 100 ng/ml of BMP2, BMP4, BMP5, BMP6 or BMP7 (R&D Systems) for 4 hours with or without VHH at the indicated concentrations. After activation, each well was washed twice with ice-cold PBS and lysed with 100 μl M-PER lysis buffer (Sigma-Aldrich, MO, United States) containing Halt Protease and Phosphatase Inhibitor Cocktail (Thermo Scientific, Landsmeer, The Netherlands). Cell debris were pelleted and supernatant was collected. 15 μg of protein was then separated by 10% SDS-PAGE and transferred onto a PVDF membrane (Millipore, Amsterdam, The Netherlands). The blots were then blocked with 5% milk in Tris-buffered saline supplemented with 0.1% Tween-20 (TBST) for 1 hour at room temperature and washed in TBST before overnight incubation at 4° C. with antiphospho-SMAD1/5/8 (Cell Signalling), anti-βactin (Santa Cruz) or anti-GAPDH (Millipore) in 5% Bovine Serum Albumin (BSA). Blots were then washed with TBST and incubated for 1 hour at room temperature in 1:2000 horseradish peroxidase—conjugated secondary antibody in TBST. After a final wash with TBST, blots were incubated for 5 minutes in LumiGlow (BIOKE, Leiden, The Netherlands) and then chemiluminescence was detected using a Fuji LAS4000 illuminator (Fujifilm Medical Systems, Stamford, Conn.). Protein was quantitated with Image). […]

[3] = biological target: T1, BMP2; assay: BMP specificity of VHH antibodies (summary of binding and inhibition of BMP function); set-up: key: ●▪: Binding and inhibition of BMP function.; ●□: Binding, but no inhibition.; ○: No binding; conditions: summary of SPR and functional experiments
From the text: (§1) Thus, we have generated several VH Hs that can be classified into four groups (Table 3): BMP4, BMP2/4, BMP2/4/5 and BMP2/4/5/6-specific.

[4] = biological target: T2, BMP7; assay: as above; set-up: key: ●▪: Binding and inhibition of BMP function.; ●□: Binding, but no inhibition.; ○: No binding; conditions: summary of SPR and functional experiments
From the text: as §1

[5] = biological target: T3, BMP6; assay: as above; set-up: key: ●▪: Binding and inhibition of BMP function.; ●□: Binding, but no inhibition.; ○: No binding; conditions: summary of SPR and functional experiments
From the text: as §1

[6] = biological target: T4, BMP5; assay: as above; set-up: key: ●▪: Binding and inhibition of BMP function.; ●□: Binding, but no inhibition.; ○: No binding; conditions: summary of SPR and functional experiments
From the text: as §1

| Molecule | inhibition of BMP12 signals, comparison of inhibitors [1] | inhibition of BMP2 signaling (pSMAD1/5/8), dimer compared to monomer [2] | BMP2: binding and inhibition of BMP function [3] | BMP7: binding and inhibition of BMP function [4] | BMP6: binding and inhibition of BMP function [5] | BMP5: binding and inhibition of BMP function [6] |
| --- | --- | --- | --- | --- | --- | --- |
| B1 | inhibited | – | – | – | – | – |
| B2 | – | better at inhibiting both BMP2 and BMP4 as compared to the E7 monomer | ●▪ | ●□ | ●□ | ●▪ |
